Assay results: publication PMC5791537 (Biomolecular NMR assignments, 2017)

Biological target: C-domain fragment of human calmodulin (residues 76-148), calcium-free (apo) (human, UniProt P0DP23 77-149)
Assay: NMR backbone assignment and chemical shift perturbation

GPGSKRKQEEVSAIIIQRAYRRYLLKQKVKK
binding result: binds
